Source: patent US20230038638A1, “COMPLEMENT FACTOR I-RELATED COMPOSITIONS AND METHODS” (published 2023)

Experiments:
human C4b (human) = biological target: T1, human C4b (human) (UniProt P0C0L5)
T1 sequence: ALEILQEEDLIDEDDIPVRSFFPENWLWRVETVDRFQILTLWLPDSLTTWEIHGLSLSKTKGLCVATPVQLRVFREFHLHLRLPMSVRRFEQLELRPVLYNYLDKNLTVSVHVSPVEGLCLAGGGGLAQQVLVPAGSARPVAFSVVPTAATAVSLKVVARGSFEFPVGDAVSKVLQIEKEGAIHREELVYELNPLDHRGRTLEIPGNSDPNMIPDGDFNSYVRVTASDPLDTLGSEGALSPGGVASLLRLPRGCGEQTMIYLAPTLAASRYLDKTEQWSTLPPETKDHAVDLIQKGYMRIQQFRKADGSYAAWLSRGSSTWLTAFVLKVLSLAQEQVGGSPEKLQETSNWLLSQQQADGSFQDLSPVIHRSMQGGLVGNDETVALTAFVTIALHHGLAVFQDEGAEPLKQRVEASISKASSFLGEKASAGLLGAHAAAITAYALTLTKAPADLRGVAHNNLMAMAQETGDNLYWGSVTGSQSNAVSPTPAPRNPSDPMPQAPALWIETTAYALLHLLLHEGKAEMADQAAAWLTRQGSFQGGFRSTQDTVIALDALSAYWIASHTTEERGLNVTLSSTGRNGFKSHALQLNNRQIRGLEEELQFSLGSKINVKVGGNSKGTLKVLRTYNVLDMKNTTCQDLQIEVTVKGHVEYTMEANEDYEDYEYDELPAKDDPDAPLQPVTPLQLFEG

[1] = biological target: soluble human C3b (human) (UniProt P01024)

| Substance | C4b Screen Ref Fold (fold vs CFI-HSA wild type) (human C4b (human)) | iC3b Screen Ref Fold (fold vs CFI-HSA wild type) [1] |
| --- | --- | --- |
| CFI-HSA D549P (enzyme) | 1.08 | 0.53 |
| CFI-HSA D549Q (enzyme) | 1.1 | 0.84 |
| CFI-HSA D549R (enzyme) | 0.52 | 0.27 |
| CFI-HSA D549T (enzyme) | 1.05 | 1.09 |
| CFI-HSA D549V (enzyme) | 0.07 | 0.46 |
| CFI-HSA D549W (enzyme) | 0.25 | 0.68 |
| CFI-HSA D549Y (enzyme) | 0.08 | 0.42 |
| CFI-HSA E401G (enzyme) | 0.82 | 2.1 |
| CFI-HSA E457G; D425R; E530Y (enzyme) | 4.29 | 1.73 |
| CFI-HSA E457G; E461Q; F464Y; N531G; GGSSGG (SEQ ID NO: 6); CR1 (ccp15-17) (from UniProt P17927) (enzyme) | 4.44 | 0.13 |
| CFI-HSA E457G; E461Q; N531G; GGSSGG (SEQ ID NO: 6); CR1 (ccp15-17) (from UniProt P17927) (enzyme) | 4.82 | 0.12 |
| CFI-HSA E457G; E461Q; R557A (enzyme) | 4.5 | 1.29 |
| CFI-HSA E457G; E461Q; R557K (enzyme) | 4.28 | 1.81 |
| CFI-HSA E457G; E530Y (enzyme) | 2.48 | 2.03 |
| CFI-HSA E457G; N531G; D425R; E530Y (enzyme) | 5.37 | 0.78 |
| CFI-HSA E457G; N531G; E461Q; R462K; F464Y; E530Y (enzyme) | 5.7 | 1.83 |
| CFI-HSA E457G; N531G; E461Q; R462K; F464Y; E530Y; GGSSGG (SEQ ID NO: 6); CR1(ccp15-17) (from UniProt P17927) (enzyme) | 2.87 | 0.01 |
| CFI-HSA E457G; N531G; E461Q; R462K; F464Y; GGSSGG (SEQ ID NO: 6); CR1 (ccp1-3) (from UniProt P17927) (enzyme) | 0.46 | 0.14 |
| CFI-HSA E457G; N531G; E461Q; R462K; F464Y; GGSSGG (SEQ ID NO: 6); CR1 (ccp15-17) (from UniProt P17927) (enzyme) | 4.36 | 0.1 |

| Substance | C4b Screen Ref Fold (fold vs CFI-HSA wild type) (human C4b (human)) | iC3b Screen Ref Fold (fold vs CFI-HSA wild type) [1] |
| --- | --- | --- |
| CFI-HSA E457G; N531G; E530Y (enzyme) | 4.22 | 1.67 |
| CFI-HSA F399G (enzyme) | 0.05 | 0.65 |
| CFI-HSA F537G (enzyme) | 0.03 | 0.37 |
| CFI-HSA H362G (enzyme) | 0.03 | -0.02 |
| CFI-HSA H370G (enzyme) | 0.13 | 0.52 |
| CFI-HSA K368E (enzyme) | 0.06 | 0.2 |
| CFI-HSA K368G (enzyme) | 0.24 | 0.16 |
| CFI-HSA K423A (enzyme) | 0.11 | 0.23 |
| CFI-HSA K423D (enzyme) | 0.31 | 0.33 |
| CFI-HSA K423E (enzyme) | 0.32 | 0.61 |
| CFI-HSA K423G (enzyme) | 0.15 | 0.69 |
| CFI-HSA K424A (enzyme) | 0.26 | 0.87 |
| CFI-HSA K424D (enzyme) | 0.27 | 1.15 |
| CFI-HSA K424E (enzyme) | 0.23 | 1.08 |
| CFI-HSA K424F (enzyme) | 0.35 | 1.04 |
| CFI-HSA K424G (enzyme) | 0.32 | 1.44 |
| CFI-HSA K424H (enzyme) | 0.53 | 1.46 |
| CFI-HSA K424I (enzyme) | 0.28 | 1.48 |
| CFI-HSA K424L (enzyme) | 0.28 | 0.91 |

| Substance | C4b Screen Ref Fold (fold vs CFI-HSA wild type) (human C4b (human)) | iC3b Screen Ref Fold (fold vs CFI-HSA wild type) [1] |
| --- | --- | --- |
| CFI-HSA K424M (enzyme) | 0.33 | 0.95 |
| CFI-HSA K424N (enzyme) | 0.5 | 1.48 |
| CFI-HSA K424P (enzyme) | 0.33 | 1.05 |
| CFI-HSA K424Q (enzyme) | 0.47 | 1.27 |
| CFI-HSA K424R (enzyme) | 0.32 | 0.97 |
| CFI-HSA K424S (enzyme) | -0.1 | 0.29 |
| CFI-HSA K424T (enzyme) | 0.03 | 0.13 |
| CFI-HSA K424V (enzyme) | 0.29 | 0.89 |
| CFI-HSA K424W (enzyme) | 0.25 | 1.52 |
| CFI-HSA K424Y (enzyme) | 0.42 | 0.95 |
| CFI-HSA L73G (enzyme) | 0.17 | 0.3 |
| CFI-HSA L76G (enzyme) | 0.07 | 0.5 |
| CFI-HSA N531G; D425R; E530Y (enzyme) | 2.71 | 2.05 |
| CFI-HSA N531G; E457G; E461Q; R557A (enzyme) | 4.46 | 0.93 |
| CFI-HSA N531G; E457G; E461Q; R557K (enzyme) | 4.69 | 1.81 |
| CFI-HSA N531G; E457G; E461Q; ΔC-term (Δ558-PFISQYNV (SEQ ID NO: 14)-565) (enzyme) | 3.57 | 0.5 |
| CFI-HSA N531G; E530Y (enzyme) | 3.41 | 2.48 |
| CFI-HSA N531G; P535A; R557A (enzyme) | 3.98 | 0.57 |
